The source of these data is IntAct's records for PubMed 35512704.

B1: Speckle-type POZ protein (Homo sapiens), O43791 (parent)
chain: MSRVPSPPPPAEMSSGPVAESWCYTQIKVVKFSYMWTINNFSFCREEMGEVIKSSTFSSGANDKLKWCLRVNPKGLDEESKDYLSLYLLLVSCPKSEVRAKFKFSILNAKGEETKAMESQRAYRFVQGKDWGFKKFIRRDFLLDEANGLLPDDKLTLFCEVSVVQDSVNISGQNTMNMVKVPECRLADELGGLWENSRFTDCCLCVAGQEFQAHKAILAARSPVFSAMFEHEMEESKKNRVEINDVEPEVFKEMMCFIYTGKAPNLDKMADDLLAAADKYALERLKVMCEDALCSNLSVENAAEILILADLHSADQLKTQAVDFINYHASDVLETSGWKSMVVSHPHLVAEAYRSLASAQCPFLGPPRKRLKQS

In one experiment the parent is B1. The note with it: with brd4_human BRD4, O60885.
Take MSRVPSPPPPAEMSSGPVAESWCYTQIKVVKFSYMWTINNFSFCREEMGEVIKSSTFSSGANDKLKWCLRVNPKGLDEESKDYLSLCLLLVSCPKSEVRAKFKFSILNAKGEETKAMESQRAYRFVQGKDWGFKKFIRRDFLLDEANGLLPDDKLTLFCEVSVVQDSVNISGQNTMNMVKVPECRLADELGGLWENSRFTDCCLCVAGQEFQAHKAILAARSPVFSAMFEHEMEESKKNRVEINDVEPEVFKEMMCFIYTGKAPNLDKMADDLLAAADKYALERLKVMCEDALCSNLSVENAAEILILADLHSADQLKTQAVDFINYHASDVLETSGWKSMVVSHPHLVAEAYRSLASAQCPFLGPPRKRLKQS [Y87C]: the “effect of a mutation on the interaction” value is given as “disrupting interaction strength”.

Variants of B1 are the subject of the next experiment. The conditions noted are these: with ncoa3_human NCOA3, Q9Y6Q9.
ncoa3_human NCOA3, Q9Y6Q9, sequence (Q9Y6Q9 whole entry, looked up): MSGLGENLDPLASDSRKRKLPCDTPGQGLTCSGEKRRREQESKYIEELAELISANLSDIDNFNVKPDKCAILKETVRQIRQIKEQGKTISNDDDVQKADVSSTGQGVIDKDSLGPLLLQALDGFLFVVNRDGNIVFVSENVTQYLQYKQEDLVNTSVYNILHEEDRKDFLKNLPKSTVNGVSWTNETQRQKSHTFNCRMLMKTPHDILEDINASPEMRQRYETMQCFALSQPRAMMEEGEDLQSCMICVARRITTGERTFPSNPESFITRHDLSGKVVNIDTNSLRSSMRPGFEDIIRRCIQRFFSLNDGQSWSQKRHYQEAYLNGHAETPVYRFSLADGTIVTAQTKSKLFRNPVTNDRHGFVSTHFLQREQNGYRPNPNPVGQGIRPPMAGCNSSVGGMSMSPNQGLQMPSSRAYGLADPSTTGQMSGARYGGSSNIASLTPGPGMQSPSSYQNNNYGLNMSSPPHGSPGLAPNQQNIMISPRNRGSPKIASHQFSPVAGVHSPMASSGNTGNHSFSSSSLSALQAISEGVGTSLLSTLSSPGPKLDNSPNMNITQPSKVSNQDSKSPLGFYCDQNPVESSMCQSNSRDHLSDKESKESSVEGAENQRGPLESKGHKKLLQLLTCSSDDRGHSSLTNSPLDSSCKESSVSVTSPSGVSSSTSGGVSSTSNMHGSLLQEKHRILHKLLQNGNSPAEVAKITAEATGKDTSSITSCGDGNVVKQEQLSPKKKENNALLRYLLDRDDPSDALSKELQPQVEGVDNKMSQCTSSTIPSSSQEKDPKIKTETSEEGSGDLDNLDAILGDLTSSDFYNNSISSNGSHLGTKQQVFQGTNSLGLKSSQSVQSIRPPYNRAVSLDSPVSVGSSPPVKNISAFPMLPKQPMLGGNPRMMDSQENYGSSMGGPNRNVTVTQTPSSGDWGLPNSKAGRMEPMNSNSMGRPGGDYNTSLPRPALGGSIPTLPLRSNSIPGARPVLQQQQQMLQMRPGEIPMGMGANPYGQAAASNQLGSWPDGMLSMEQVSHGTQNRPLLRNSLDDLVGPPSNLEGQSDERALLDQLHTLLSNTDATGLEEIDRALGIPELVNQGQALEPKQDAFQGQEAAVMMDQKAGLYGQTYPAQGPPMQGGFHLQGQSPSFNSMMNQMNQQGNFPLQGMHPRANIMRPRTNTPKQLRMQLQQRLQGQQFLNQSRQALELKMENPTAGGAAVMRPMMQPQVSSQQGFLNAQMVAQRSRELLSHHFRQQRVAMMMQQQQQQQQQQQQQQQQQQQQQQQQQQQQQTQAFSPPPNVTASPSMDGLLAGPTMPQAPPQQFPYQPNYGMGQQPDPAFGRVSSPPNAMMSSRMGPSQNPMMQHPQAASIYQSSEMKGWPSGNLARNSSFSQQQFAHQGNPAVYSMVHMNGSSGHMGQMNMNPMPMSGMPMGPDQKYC
As to MSRVPSPPPPAEMSSGPVAESWCYTQIKVVKFSYMWTINNFSFCREEMGEVIKSSTFSSGANDKLKWCLRVNPKGLDEESKDYLSLCLLLVSCPKSEVRAKFKFSILNAKGEETKAMESQRAYRFVQGKDWGFKKFIRRDFLLDEANGLLPDDKLTLFCEVSVVQDSVNISGQNTMNMVKVPECRLADELGGLWENSRFTDCCLCVAGQEFQAHKAILAARSPVFSAMFEHEMEESKKNRVEINDVEPEVFKEMMCFIYTGKAPNLDKMADDLLAAADKYALERLKVMCEDALCSNLSVENAAEILILADLHSADQLKTQAVDFINYHASDVLETSGWKSMVVSHPHLVAEAYRSLASAQCPFLGPPRKRLKQS [Y87C], the “effect of a mutation on the interaction” value is “disrupting interaction strength”.

In another experiment the parent is B1. The conditions noted are these: with jun_human JUN.
In the case of MSRVPSPPPPAEMSSGPVAESWCYTQIKVVKFSYMWTINNFSFCREEMGEVIKSSTFSSGANDKLKWCLRVNPKGLDEESKDYLSLCLLLVSCPKSEVRAKFKFSILNAKGEETKAMESQRAYRFVQGKDWGFKKFIRRDFLLDEANGLLPDDKLTLFCEVSVVQDSVNISGQNTMNMVKVPECRLADELGGLWENSRFTDCCLCVAGQEFQAHKAILAARSPVFSAMFEHEMEESKKNRVEINDVEPEVFKEMMCFIYTGKAPNLDKMADDLLAAADKYALERLKVMCEDALCSNLSVENAAEILILADLHSADQLKTQAVDFINYHASDVLETSGWKSMVVSHPHLVAEAYRSLASAQCPFLGPPRKRLKQS [Y87C], the “effect of a mutation on the interaction” value was “disrupting interaction strength”.

Variants of B1 are the subject of the next experiment. The note with it: with akt1_human AKT1, P31749.
akt1_human AKT1, P31749, sequence (P31749 whole entry): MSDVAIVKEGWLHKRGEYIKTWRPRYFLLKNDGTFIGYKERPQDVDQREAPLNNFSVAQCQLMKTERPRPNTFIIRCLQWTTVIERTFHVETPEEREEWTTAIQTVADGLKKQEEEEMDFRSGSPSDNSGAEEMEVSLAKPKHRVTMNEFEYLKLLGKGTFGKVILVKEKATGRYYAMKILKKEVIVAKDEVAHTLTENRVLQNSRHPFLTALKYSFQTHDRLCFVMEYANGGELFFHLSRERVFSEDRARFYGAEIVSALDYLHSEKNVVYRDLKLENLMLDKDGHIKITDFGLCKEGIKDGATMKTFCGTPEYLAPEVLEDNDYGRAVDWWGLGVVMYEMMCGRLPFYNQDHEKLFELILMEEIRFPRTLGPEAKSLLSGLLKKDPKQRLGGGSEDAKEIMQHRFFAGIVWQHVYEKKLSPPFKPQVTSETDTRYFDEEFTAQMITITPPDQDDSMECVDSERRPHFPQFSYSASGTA
For MSRVPSPPPPAEMSSGPVAESWCYTQIKVVKFSYMWTINNFSFCREEMGEVIKSSTFSSGANDKLKWCLRVNPKGLDEESKDYLSLCLLLVSCPKSEVRAKFKFSILNAKGEETKAMESQRAYRFVQGKDWGFKKFIRRDFLLDEANGLLPDDKLTLFCEVSVVQDSVNISGQNTMNMVKVPECRLADELGGLWENSRFTDCCLCVAGQEFQAHKAILAARSPVFSAMFEHEMEESKKNRVEINDVEPEVFKEMMCFIYTGKAPNLDKMADDLLAAADKYALERLKVMCEDALCSNLSVENAAEILILADLHSADQLKTQAVDFINYHASDVLETSGWKSMVVSHPHLVAEAYRSLASAQCPFLGPPRKRLKQS [Y87C], the “effect of a mutation on the interaction” value is given as “with no effect”.

In a further experiment the parent is B1. The conditions noted are these: with alk_human ALK.
For MSRVPSPPPPAEMSSGPVAESWCYTQIKVVKFSYMWTINNFSFCREEMGEVIKSSTFSSGANDKLKWCLRVNPKGLDEESKDYLSLCLLLVSCPKSEVRAKFKFSILNAKGEETKAMESQRAYRFVQGKDWGFKKFIRRDFLLDEANGLLPDDKLTLFCEVSVVQDSVNISGQNTMNMVKVPECRLADELGGLWENSRFTDCCLCVAGQEFQAHKAILAARSPVFSAMFEHEMEESKKNRVEINDVEPEVFKEMMCFIYTGKAPNLDKMADDLLAAADKYALERLKVMCEDALCSNLSVENAAEILILADLHSADQLKTQAVDFINYHASDVLETSGWKSMVVSHPHLVAEAYRSLASAQCPFLGPPRKRLKQS [Y87C], the “effect of a mutation on the interaction” value is “with no effect”.

The variants in the next experiment derive from B1. The conditions noted are these: with aph1a_human APH1A.
MSRVPSPPPPAEMSSGPVAESWCYTQIKVVKFSYMWTINNFSFCREEMGEVIKSSTFSSGANDKLKWCLRVNPKGLDEESKDYLSLCLLLVSCPKSEVRAKFKFSILNAKGEETKAMESQRAYRFVQGKDWGFKKFIRRDFLLDEANGLLPDDKLTLFCEVSVVQDSVNISGQNTMNMVKVPECRLADELGGLWENSRFTDCCLCVAGQEFQAHKAILAARSPVFSAMFEHEMEESKKNRVEINDVEPEVFKEMMCFIYTGKAPNLDKMADDLLAAADKYALERLKVMCEDALCSNLSVENAAEILILADLHSADQLKTQAVDFINYHASDVLETSGWKSMVVSHPHLVAEAYRSLASAQCPFLGPPRKRLKQS [Y87C]: the “effect of a mutation on the interaction” value is given as “with no effect”.

The next experiment covers variants of B1. The conditions noted are these: with arnt_human ARNT.
For the variant MSRVPSPPPPAEMSSGPVAESWCYTQIKVVKFSYMWTINNFSFCREEMGEVIKSSTFSSGANDKLKWCLRVNPKGLDEESKDYLSLCLLLVSCPKSEVRAKFKFSILNAKGEETKAMESQRAYRFVQGKDWGFKKFIRRDFLLDEANGLLPDDKLTLFCEVSVVQDSVNISGQNTMNMVKVPECRLADELGGLWENSRFTDCCLCVAGQEFQAHKAILAARSPVFSAMFEHEMEESKKNRVEINDVEPEVFKEMMCFIYTGKAPNLDKMADDLLAAADKYALERLKVMCEDALCSNLSVENAAEILILADLHSADQLKTQAVDFINYHASDVLETSGWKSMVVSHPHLVAEAYRSLASAQCPFLGPPRKRLKQS [Y87C], the “effect of a mutation on the interaction” value is recorded as “with no effect”.

The variants in another experiment derive from B1. The note with it: with arc1a_human ARPC1A.
Consider MSRVPSPPPPAEMSSGPVAESWCYTQIKVVKFSYMWTINNFSFCREEMGEVIKSSTFSSGANDKLKWCLRVNPKGLDEESKDYLSLCLLLVSCPKSEVRAKFKFSILNAKGEETKAMESQRAYRFVQGKDWGFKKFIRRDFLLDEANGLLPDDKLTLFCEVSVVQDSVNISGQNTMNMVKVPECRLADELGGLWENSRFTDCCLCVAGQEFQAHKAILAARSPVFSAMFEHEMEESKKNRVEINDVEPEVFKEMMCFIYTGKAPNLDKMADDLLAAADKYALERLKVMCEDALCSNLSVENAAEILILADLHSADQLKTQAVDFINYHASDVLETSGWKSMVVSHPHLVAEAYRSLASAQCPFLGPPRKRLKQS [Y87C], for which the “effect of a mutation on the interaction” value is “with no effect”.

The variants in the next experiment derive from B1. The conditions noted are these: with asxl2_human ASXL2, Q76L83.
asxl2_human ASXL2, Q76L83, sequence (Q76L83 whole entry): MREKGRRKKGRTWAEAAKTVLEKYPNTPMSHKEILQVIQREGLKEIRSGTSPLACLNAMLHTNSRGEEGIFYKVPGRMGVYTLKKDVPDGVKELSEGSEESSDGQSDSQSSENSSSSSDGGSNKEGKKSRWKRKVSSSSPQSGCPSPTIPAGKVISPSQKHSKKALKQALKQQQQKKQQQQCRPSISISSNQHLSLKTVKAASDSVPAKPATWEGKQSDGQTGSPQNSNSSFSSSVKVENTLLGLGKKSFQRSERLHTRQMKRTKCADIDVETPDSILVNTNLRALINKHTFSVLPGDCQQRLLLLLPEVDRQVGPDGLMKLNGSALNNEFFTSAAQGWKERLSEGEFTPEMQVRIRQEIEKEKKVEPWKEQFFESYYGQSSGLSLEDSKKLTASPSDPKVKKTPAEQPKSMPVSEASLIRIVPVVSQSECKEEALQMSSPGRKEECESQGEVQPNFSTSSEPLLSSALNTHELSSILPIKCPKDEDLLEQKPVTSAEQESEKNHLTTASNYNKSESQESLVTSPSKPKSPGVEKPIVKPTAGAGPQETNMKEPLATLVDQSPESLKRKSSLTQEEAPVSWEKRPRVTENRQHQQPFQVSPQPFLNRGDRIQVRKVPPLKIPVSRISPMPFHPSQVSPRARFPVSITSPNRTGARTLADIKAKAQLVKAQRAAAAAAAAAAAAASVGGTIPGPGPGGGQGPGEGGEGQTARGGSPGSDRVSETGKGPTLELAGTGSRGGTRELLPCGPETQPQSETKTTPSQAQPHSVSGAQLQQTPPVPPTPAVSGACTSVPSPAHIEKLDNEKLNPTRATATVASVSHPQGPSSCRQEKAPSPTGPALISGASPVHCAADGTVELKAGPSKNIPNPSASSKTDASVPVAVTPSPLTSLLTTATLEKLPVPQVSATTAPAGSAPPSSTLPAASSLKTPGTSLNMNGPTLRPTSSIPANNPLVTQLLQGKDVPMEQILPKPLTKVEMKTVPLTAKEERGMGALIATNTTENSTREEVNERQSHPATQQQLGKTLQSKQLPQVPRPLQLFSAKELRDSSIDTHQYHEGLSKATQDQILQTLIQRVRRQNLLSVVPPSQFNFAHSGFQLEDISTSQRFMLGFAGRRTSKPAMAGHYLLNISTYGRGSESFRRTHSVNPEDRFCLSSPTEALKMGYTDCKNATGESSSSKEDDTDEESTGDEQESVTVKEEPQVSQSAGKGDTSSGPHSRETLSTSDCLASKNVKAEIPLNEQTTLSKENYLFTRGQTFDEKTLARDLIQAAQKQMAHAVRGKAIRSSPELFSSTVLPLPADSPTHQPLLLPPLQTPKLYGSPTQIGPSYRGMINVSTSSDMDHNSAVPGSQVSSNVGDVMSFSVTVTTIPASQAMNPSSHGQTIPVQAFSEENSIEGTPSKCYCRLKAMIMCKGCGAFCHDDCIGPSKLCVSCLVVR
With MSRVPSPPPPAEMSSGPVAESWCYTQIKVVKFSYMWTINNFSFCREEMGEVIKSSTFSSGANDKLKWCLRVNPKGLDEESKDYLSLCLLLVSCPKSEVRAKFKFSILNAKGEETKAMESQRAYRFVQGKDWGFKKFIRRDFLLDEANGLLPDDKLTLFCEVSVVQDSVNISGQNTMNMVKVPECRLADELGGLWENSRFTDCCLCVAGQEFQAHKAILAARSPVFSAMFEHEMEESKKNRVEINDVEPEVFKEMMCFIYTGKAPNLDKMADDLLAAADKYALERLKVMCEDALCSNLSVENAAEILILADLHSADQLKTQAVDFINYHASDVLETSGWKSMVVSHPHLVAEAYRSLASAQCPFLGPPRKRLKQS [Y87C], the “effect of a mutation on the interaction” value was “with no effect”.

Variants of B1 are the subject of another experiment. The note with it: with bakor_human ATG14, Q6ZNE5.
bakor_human ATG14, Q6ZNE5, sequence (Q6ZNE5 whole entry): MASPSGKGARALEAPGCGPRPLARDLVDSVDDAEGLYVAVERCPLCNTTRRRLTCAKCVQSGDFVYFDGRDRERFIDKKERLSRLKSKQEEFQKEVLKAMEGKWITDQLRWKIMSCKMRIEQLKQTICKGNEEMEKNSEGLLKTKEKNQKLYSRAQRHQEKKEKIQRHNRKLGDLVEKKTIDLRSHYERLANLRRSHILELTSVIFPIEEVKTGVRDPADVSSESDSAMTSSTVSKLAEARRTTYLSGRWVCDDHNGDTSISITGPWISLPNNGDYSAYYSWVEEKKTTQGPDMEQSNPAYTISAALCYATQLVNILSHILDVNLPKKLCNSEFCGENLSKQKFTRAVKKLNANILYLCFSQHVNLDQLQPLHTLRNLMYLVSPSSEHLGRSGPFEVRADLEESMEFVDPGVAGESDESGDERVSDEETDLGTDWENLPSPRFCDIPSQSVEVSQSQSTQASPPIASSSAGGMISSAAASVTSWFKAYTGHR
With MSRVPSPPPPAEMSSGPVAESWCYTQIKVVKFSYMWTINNFSFCREEMGEVIKSSTFSSGANDKLKWCLRVNPKGLDEESKDYLSLCLLLVSCPKSEVRAKFKFSILNAKGEETKAMESQRAYRFVQGKDWGFKKFIRRDFLLDEANGLLPDDKLTLFCEVSVVQDSVNISGQNTMNMVKVPECRLADELGGLWENSRFTDCCLCVAGQEFQAHKAILAARSPVFSAMFEHEMEESKKNRVEINDVEPEVFKEMMCFIYTGKAPNLDKMADDLLAAADKYALERLKVMCEDALCSNLSVENAAEILILADLHSADQLKTQAVDFINYHASDVLETSGWKSMVVSHPHLVAEAYRSLASAQCPFLGPPRKRLKQS [Y87C], the “effect of a mutation on the interaction” value is recorded as “with no effect”.

The next experiment covers variants of B1. The conditions noted are these: with atm_human ATM.
Consider MSRVPSPPPPAEMSSGPVAESWCYTQIKVVKFSYMWTINNFSFCREEMGEVIKSSTFSSGANDKLKWCLRVNPKGLDEESKDYLSLCLLLVSCPKSEVRAKFKFSILNAKGEETKAMESQRAYRFVQGKDWGFKKFIRRDFLLDEANGLLPDDKLTLFCEVSVVQDSVNISGQNTMNMVKVPECRLADELGGLWENSRFTDCCLCVAGQEFQAHKAILAARSPVFSAMFEHEMEESKKNRVEINDVEPEVFKEMMCFIYTGKAPNLDKMADDLLAAADKYALERLKVMCEDALCSNLSVENAAEILILADLHSADQLKTQAVDFINYHASDVLETSGWKSMVVSHPHLVAEAYRSLASAQCPFLGPPRKRLKQS [Y87C], for which the “effect of a mutation on the interaction” value is “with no effect”.

Variants of B1 are the subject of another experiment. The conditions noted are these: with atpb_human ATP5F1B.
Regarding MSRVPSPPPPAEMSSGPVAESWCYTQIKVVKFSYMWTINNFSFCREEMGEVIKSSTFSSGANDKLKWCLRVNPKGLDEESKDYLSLCLLLVSCPKSEVRAKFKFSILNAKGEETKAMESQRAYRFVQGKDWGFKKFIRRDFLLDEANGLLPDDKLTLFCEVSVVQDSVNISGQNTMNMVKVPECRLADELGGLWENSRFTDCCLCVAGQEFQAHKAILAARSPVFSAMFEHEMEESKKNRVEINDVEPEVFKEMMCFIYTGKAPNLDKMADDLLAAADKYALERLKVMCEDALCSNLSVENAAEILILADLHSADQLKTQAVDFINYHASDVLETSGWKSMVVSHPHLVAEAYRSLASAQCPFLGPPRKRLKQS [Y87C], the “effect of a mutation on the interaction” value is recorded as “with no effect”.

The variants in a further experiment derive from B1. The note with it: with aurkb_human AURKB.
As for MSRVPSPPPPAEMSSGPVAESWCYTQIKVVKFSYMWTINNFSFCREEMGEVIKSSTFSSGANDKLKWCLRVNPKGLDEESKDYLSLCLLLVSCPKSEVRAKFKFSILNAKGEETKAMESQRAYRFVQGKDWGFKKFIRRDFLLDEANGLLPDDKLTLFCEVSVVQDSVNISGQNTMNMVKVPECRLADELGGLWENSRFTDCCLCVAGQEFQAHKAILAARSPVFSAMFEHEMEESKKNRVEINDVEPEVFKEMMCFIYTGKAPNLDKMADDLLAAADKYALERLKVMCEDALCSNLSVENAAEILILADLHSADQLKTQAVDFINYHASDVLETSGWKSMVVSHPHLVAEAYRSLASAQCPFLGPPRKRLKQS [Y87C], the “effect of a mutation on the interaction” value was “with no effect”.

In the next experiment the parent is B1. The conditions noted are these: with axin2_human AXIN2, Q9Y2T1.
axin2_human AXIN2, Q9Y2T1, sequence (Q9Y2T1 whole entry): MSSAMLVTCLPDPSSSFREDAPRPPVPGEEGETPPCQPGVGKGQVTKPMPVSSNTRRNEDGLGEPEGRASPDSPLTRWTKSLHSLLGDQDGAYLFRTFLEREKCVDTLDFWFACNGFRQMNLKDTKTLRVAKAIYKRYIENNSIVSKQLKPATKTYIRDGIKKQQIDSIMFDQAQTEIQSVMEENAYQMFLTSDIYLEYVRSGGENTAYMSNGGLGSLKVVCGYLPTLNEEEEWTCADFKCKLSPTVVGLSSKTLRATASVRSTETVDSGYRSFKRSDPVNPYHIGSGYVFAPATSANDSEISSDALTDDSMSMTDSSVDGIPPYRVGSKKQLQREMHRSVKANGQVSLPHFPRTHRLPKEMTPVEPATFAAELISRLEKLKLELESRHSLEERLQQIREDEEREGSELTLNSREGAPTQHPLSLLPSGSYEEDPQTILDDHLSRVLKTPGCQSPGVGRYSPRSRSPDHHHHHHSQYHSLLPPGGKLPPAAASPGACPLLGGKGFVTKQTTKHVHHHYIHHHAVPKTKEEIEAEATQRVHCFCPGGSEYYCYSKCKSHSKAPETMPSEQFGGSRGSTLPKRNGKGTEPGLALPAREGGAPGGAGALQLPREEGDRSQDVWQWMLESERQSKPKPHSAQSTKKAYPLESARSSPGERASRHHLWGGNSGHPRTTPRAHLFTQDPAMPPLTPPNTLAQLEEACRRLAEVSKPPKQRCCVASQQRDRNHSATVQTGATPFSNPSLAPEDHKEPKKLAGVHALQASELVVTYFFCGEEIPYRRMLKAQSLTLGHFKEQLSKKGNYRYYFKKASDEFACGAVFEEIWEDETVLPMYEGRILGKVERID
Turning to MSRVPSPPPPAEMSSGPVAESWCYTQIKVVKFSYMWTINNFSFCREEMGEVIKSSTFSSGANDKLKWCLRVNPKGLDEESKDYLSLCLLLVSCPKSEVRAKFKFSILNAKGEETKAMESQRAYRFVQGKDWGFKKFIRRDFLLDEANGLLPDDKLTLFCEVSVVQDSVNISGQNTMNMVKVPECRLADELGGLWENSRFTDCCLCVAGQEFQAHKAILAARSPVFSAMFEHEMEESKKNRVEINDVEPEVFKEMMCFIYTGKAPNLDKMADDLLAAADKYALERLKVMCEDALCSNLSVENAAEILILADLHSADQLKTQAVDFINYHASDVLETSGWKSMVVSHPHLVAEAYRSLASAQCPFLGPPRKRLKQS [Y87C], the “effect of a mutation on the interaction” value is “with no effect”.

The next experiment covers variants of B1. The conditions noted are these: with ufo_human AXL.
As for MSRVPSPPPPAEMSSGPVAESWCYTQIKVVKFSYMWTINNFSFCREEMGEVIKSSTFSSGANDKLKWCLRVNPKGLDEESKDYLSLCLLLVSCPKSEVRAKFKFSILNAKGEETKAMESQRAYRFVQGKDWGFKKFIRRDFLLDEANGLLPDDKLTLFCEVSVVQDSVNISGQNTMNMVKVPECRLADELGGLWENSRFTDCCLCVAGQEFQAHKAILAARSPVFSAMFEHEMEESKKNRVEINDVEPEVFKEMMCFIYTGKAPNLDKMADDLLAAADKYALERLKVMCEDALCSNLSVENAAEILILADLHSADQLKTQAVDFINYHASDVLETSGWKSMVVSHPHLVAEAYRSLASAQCPFLGPPRKRLKQS [Y87C], the “effect of a mutation on the interaction” value was “with no effect”.
